Source: article PMC4470385
pKd: −log10 of the molar value.

molecular target: Von Willebrand factor (VWF) (UniProt P04275); assay: ELISA

| Substance | pKd |
| --- | --- |
| FVIII 336(P4-P3')562 variant (B-domainless) (natural protein) | 9.09 |
| FVIII 336(P4-P3')562/Ala108Ile/Asp519Val/Glu665Val variant (B-domainless) (natural protein) | 9.00 |
| FVIII Asp519Val/Glu665Val variant (B-domainless) (natural protein) | 9.05 |
| WT FVIII (B-domainless factor VIII, lacking residues Gln744-Ser1637) (natural protein) | 9.02 |

Further substances by rising pKd, results first:

| pKd | Substance |
| --- | --- |
| 9.01 | FVIII Ala108Ile variant (B-domainless) (natural protein) |
| 9.04 | FVIII 336(P4-P3')562/Ala108Ile variant (B-domainless) (natural protein) |
| 9.06 | FVIII 336(P4-P3')562/Asp519Val/Glu665Val variant (B-domainless) (natural protein) |
